Measurements as given in the supplement of paper PMC10126150.
± gives the standard deviation of the averaged measurements.

System: ATP
Test: switch fluorescence ratio, 500 uM ATP over buffer (Cy3 cluster intensity, sum of 5 cycles each) (fold (ratio)); higher = stronger signal-on switching upon ATP binding; sequences stand for … in TCGTCGGCAGCGTCAGATGTGTATAAGAGACAGTTTTTTTTTTTTTTTTTTTTTTTTT…TC
Conditions: aptamer strand: ATP DNA aptamer (quencher-CACCTGGGGGAGTATTGCGGAGGAAGG + anchor), 100 nM annealed; ATP concentration: 500 uM
Method in brief: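 Values give the fluorescence ratio for each switch-domain sequence, averaged from per-cluster ratios of summed target-cycle to summed buffer-cycle Cy3 intensity. The Cy3-labelled switching-strand clusters sat on a modified Illumina MiSeq flow-cell, were annealed to 100 nM quencher-labelled ATP aptamer, and were imaged in selection buffer, then after 15 min with 500 uM ATP at 22 °C. Five cycles ran with NaOH stripping and re-annealing between them, and clusters outside 100-1000 RFU were excluded.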
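Also: ATP exposure 15 min at 22 °C before imaging.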

With GCCAGTATGT the switch fluorescence ratio was 1.08 ± 0.086.
In the case of GCCATCACGC, the switch fluorescence ratio is reported as 0.9836 ± 0.006.
In the case of GCCATCATGC, the switch fluorescence ratio is reported as 0.97 ± 0.0073.
Sequence GCCATCGTCG has a switch fluorescence ratio of 1.01 ± 0.044.
GCCATGCGTC showed a switch fluorescence ratio of 1.01 ± 0.026.
Work on GCCATGGGCA yielded a switch fluorescence ratio of 1.002 ± 0.0053.
For GCCATGTTTT, the switch fluorescence ratio was 0.9646 ± 0.008.
GCCATTAAGA showed a switch fluorescence ratio of 1.01 ± 0.011.
GCCATTCATC was tested, and the switch fluorescence ratio was 1.02 ± 0.017.
In the case of GCCCAAGAGT, the switch fluorescence ratio is reported as 1.04 ± 0.02.
GCCCCACCTG was tested, and the switch fluorescence ratio was 1.05 ± 0.029.
GCCCCAGGGG was tested, and the switch fluorescence ratio was 4.81 ± 0.36.
GCCCGAGCAG showed a switch fluorescence ratio of 1.22 ± 0.062.
Work on GCCCGCTTCG yielded a switch fluorescence ratio of 1.03 ± 0.024.
With GCCCGGAGCG the switch fluorescence ratio was 1.68 ± 0.13.
Sequence GCCCGTTTCG has a switch fluorescence ratio of 0.9989 ± 0.0082.
For GCCCTCCTGC, the switch fluorescence ratio was 1.16 ± 0.078.
In the case of GCCCTCTCGA, the switch fluorescence ratio is reported as 1.018 ± 0.0079.
In the case of GCCCTGGGGA, the switch fluorescence ratio is reported as 2.74 ± 2.4.
In the case of GCCGAAAGGA, the switch fluorescence ratio is reported as 1.04 ± 0.039.
Work on GCCGAAATGT yielded a switch fluorescence ratio of 1.06 ± 0.097.
With GCCGCAGACA the switch fluorescence ratio was 1.39 ± 0.1.
Work on GCCGCAGGGG yielded a switch fluorescence ratio of 2.61 ± 1.3.
GCCGCATTTG showed a switch fluorescence ratio of 1.147 ± 0.011.
In the case of GCCGCCTTTT, the switch fluorescence ratio is reported as 1.023 ± 0.0016.
Work on GCCGCGGGAG yielded a switch fluorescence ratio of 1.096 ± 0.0063.
Work on GCCGCTTGCA yielded a switch fluorescence ratio of 0.9973 ± 0.0053.
Work on GCCGGAAAAC yielded a switch fluorescence ratio of 2.35 ± 0.2.
GCCGGACTTT was tested, and the switch fluorescence ratio was 1.01 ± 0.012.
For GCCGGAGGGG, the switch fluorescence ratio was 1.26 ± 0.39.
For GCCGGCGCAC, the switch fluorescence ratio was 1.026 ± 0.0057.
Work on GCCGGCGTCG yielded a switch fluorescence ratio of 1.03 ± 0.035.
GCCGGCTTCT showed a switch fluorescence ratio of 1.02 ± 0.016.
With GCCGGGATAG the switch fluorescence ratio was 1.23 ± 0.35.
Work on GCCGGGGTCG yielded a switch fluorescence ratio of 1.02 ± 0.037.
GCCGGGGTGC gave a switch fluorescence ratio of 1.06 ± 0.028.
GCCGGGGTTG showed a switch fluorescence ratio of 1 ± 0.021.
For GCCGGGTATG, the switch fluorescence ratio was 1.02 ± 0.022.
Work on GCCGTACCTG yielded a switch fluorescence ratio of 1.041 ± 0.00042.
For GCCGTACTCT, the switch fluorescence ratio was 1.1 ± 0.1.
GCCGTAGACC was tested, and the switch fluorescence ratio was 0.9994 ± 0.0092.
Sequence GCCGTAGGGC has a switch fluorescence ratio of 0.985 ± 0.011.
Sequence GCCGTTCTTA has a switch fluorescence ratio of 1.05 ± 0.037.
GCCTAATATG showed a switch fluorescence ratio of 0.9793 ± 0.0083.
GCCTACAGGT was tested, and the switch fluorescence ratio was 1.03 ± 0.019.
Work on GCCTATAACT yielded a switch fluorescence ratio of 1.016 ± 0.0077.
For GCCTATATTT, the switch fluorescence ratio was 0.994 ± 0.017.
With GCCTCCTTTT the switch fluorescence ratio was 1.05 ± 0.019.
GCCTCGTTGG showed a switch fluorescence ratio of 0.98 ± 0.012.
GCCTGATGCG showed a switch fluorescence ratio of 0.997 ± 0.055.
Sequence GCCTGCTGGA has a switch fluorescence ratio of 1.002 ± 0.0023.
For GCCTGGAAAT, the switch fluorescence ratio was 1 ± 0.021.
GCCTGGAGTA showed a switch fluorescence ratio of 1.03 ± 0.065.
In the case of GCCTGGGACC, the switch fluorescence ratio is reported as 0.996 ± 0.022.
Work on GCCTGGGGGG yielded a switch fluorescence ratio of 1.02 ± 0.042.
GCCTGGTCAG gave a switch fluorescence ratio of 0.979 ± 0.013.
For GCCTGTAAGT, the switch fluorescence ratio was 0.989 ± 0.032.
Work on GCCTGTACTT yielded a switch fluorescence ratio of 0.9883 ± 0.0046.
GCCTGTTTGG gave a switch fluorescence ratio of 1.014 ± 0.01.
GCCTTACAGT was tested, and the switch fluorescence ratio was 0.985 ± 0.015.
Sequence GCCTTACCTG has a switch fluorescence ratio of 1.05 ± 0.012.
GCCTTACGTC showed a switch fluorescence ratio of 1.05 ± 0.052.
In the case of GCCTTGAGGA, the switch fluorescence ratio is reported as 0.997 ± 0.018.
Work on GCCTTGATGT yielded a switch fluorescence ratio of 1.01 ± 0.032.
GCGAAAAAGC gave a switch fluorescence ratio of 0.978 ± 0.046.
GCGAAAACGC was tested, and the switch fluorescence ratio was 1.04 ± 0.039.
GCGAAAGTTT gave a switch fluorescence ratio of 1.01 ± 0.013.
Work on GCGAACTTGG yielded a switch fluorescence ratio of 0.977 ± 0.016.
GCGAAGACAA showed a switch fluorescence ratio of 1.04 ± 0.048.
Work on GCGAATCGCT yielded a switch fluorescence ratio of 0.9675 ± 0.0058.
For GCGAATTGGA, the switch fluorescence ratio was 1.028 ± 0.0019.
Work on GCGACAAGCT yielded a switch fluorescence ratio of 0.997 ± 0.015.
With GCGACAGATG the switch fluorescence ratio was 1.01 ± 0.027.
GCGACAGGGT gave a switch fluorescence ratio of 1.023 ± 0.0055.
Sequence GCGACCATCC has a switch fluorescence ratio of 1.8 ± 0.08.
Sequence GCGAGAACTA has a switch fluorescence ratio of 0.967 ± 0.024.
Work on GCGAGAAGAG yielded a switch fluorescence ratio of 1.003 ± 0.0092.
Work on GCGAGATCCG yielded a switch fluorescence ratio of 1.01 ± 0.011.
GCGAGGACAT gave a switch fluorescence ratio of 1.04 ± 0.012.
Sequence GCGAGGGGCG has a switch fluorescence ratio of 1 ± 0.062.
For GCGAGGGGGA, the switch fluorescence ratio was 0.984 ± 0.046.
In the case of GCGAGGGTGG, the switch fluorescence ratio is reported as 1.02 ± 0.018.
Sequence GCGAGTCTCA has a switch fluorescence ratio of 1.007 ± 0.01.
With GCGAGTGCGG the switch fluorescence ratio was 1.02 ± 0.018.
Sequence GCGAGTTTGC has a switch fluorescence ratio of 1.02 ± 0.017.
In the case of GCGATAGCAG, the switch fluorescence ratio is reported as 1.03 ± 0.036.
GCGATAGGGC gave a switch fluorescence ratio of 1.02 ± 0.065.
GCGATCAAGG was tested, and the switch fluorescence ratio was 1.02 ± 0.012.
GCGATCAATC gave a switch fluorescence ratio of 1.71 ± 0.029.
For GCGATCCCCT, the switch fluorescence ratio was 1.77 ± 0.72.
GCGATGCTGC was tested, and the switch fluorescence ratio was 1.24 ± 0.08.
Sequence GCGATGTAGA has a switch fluorescence ratio of 1.051 ± 0.0087.
With GCGATTAAG the switch fluorescence ratio was 0.981 ± 0.017.
In the case of GCGATTGTAA, the switch fluorescence ratio is reported as 0.985 ± 0.024.
Work on GCGATTTTAA yielded a switch fluorescence ratio of 1.02 ± 0.048.
With GCGATTTTTG the switch fluorescence ratio was 0.986 ± 0.041.
GCGCAAAATT showed a switch fluorescence ratio of 0.9973 ± 0.0046.
GCGCAAGGGG showed a switch fluorescence ratio of 1.01 ± 0.015.
Sequence GCGCAGCGGC has a switch fluorescence ratio of 1.09 ± 0.023.
For GCGCAGGCTT, the switch fluorescence ratio was 0.986 ± 0.022.
Work on GCGCATAAGG yielded a switch fluorescence ratio of 1.039 ± 0.0057.
Sequence GCGCATCATT has a switch fluorescence ratio of 0.986 ± 0.025.
GCGCCTGTAT gave a switch fluorescence ratio of 0.986 ± 0.046.
Sequence GCGCGCGGAA has a switch fluorescence ratio of 1.016 ± 0.0016.
For GCGCGGAACG, the switch fluorescence ratio was 0.998 ± 0.047.
GCGCGGGAAC gave a switch fluorescence ratio of 1.46 ± 0.17.
GCGCGTGCAC showed a switch fluorescence ratio of 0.988 ± 0.042.
Sequence GCGCTAGCAG has a switch fluorescence ratio of 0.99 ± 0.018.
GCGCTATGAG showed a switch fluorescence ratio of 1.04 ± 0.02.
For GCGCTGGTTA, the switch fluorescence ratio was 0.9941 ± 0.0027.
For GCGCTGTGTG, the switch fluorescence ratio was 1 ± 0.041.
For GCGCTTTCAC, the switch fluorescence ratio was 1.53 ± 0.026.
Sequence GCGGAAAGGC has a switch fluorescence ratio of 1.01 ± 0.0025.
GCGGAAGGTG gave a switch fluorescence ratio of 1.55 ± 0.032.
With GCGGAATGCA the switch fluorescence ratio was 0.997 ± 0.025.
GCGGACCGGT gave a switch fluorescence ratio of 0.968 ± 0.04.
With GCGGAGAAAT the switch fluorescence ratio was 1.4 ± 0.3.
GCGGATAGAA was tested, and the switch fluorescence ratio was 1.04 ± 0.017.
For GCGGATGCGT, the switch fluorescence ratio was 1.03 ± 0.048.
Work on GCGGATGTGC yielded a switch fluorescence ratio of 1.036 ± 0.0078.
GCGGATTTGT was tested, and the switch fluorescence ratio was 0.998 ± 0.038.
In the case of GCGGCAAGGA, the switch fluorescence ratio is reported as 1.04 ± 0.017.
GCGGCCCGAG was tested, and the switch fluorescence ratio was 0.962 ± 0.022.
In the case of GCGGCCGAGG, the switch fluorescence ratio is reported as 1.02 ± 0.041.
GCGGCCTTGT showed a switch fluorescence ratio of 1.04 ± 0.011.
In the case of GCGGCCTTTC, the switch fluorescence ratio is reported as 1.2 ± 0.23.
GCGGCGAGGA showed a switch fluorescence ratio of 1.02 ± 0.038.
In the case of GCGGCGGAGG, the switch fluorescence ratio is reported as 0.995 ± 0.032.
Work on GCGGCTGCTG yielded a switch fluorescence ratio of 1.04 ± 0.062.
Sequence GCGGCTGG has a switch fluorescence ratio of 0.963 ± 0.022.
Sequence GCGGCTGGGG has a switch fluorescence ratio of 1.01 ± 0.057.
In the case of GCGGGAAATT, the switch fluorescence ratio is reported as 1 ± 0.03.
For GCGGGACTTG, the switch fluorescence ratio was 1.03 ± 0.029.
In the case of GCGGGAGGGG, the switch fluorescence ratio is reported as 0.99 ± 0.054.
In the case of GCGGGATTAT, the switch fluorescence ratio is reported as 1.012 ± 0.0057.
Work on GCGGGCATTT yielded a switch fluorescence ratio of 0.995 ± 0.015.
GCGGGCCGTC showed a switch fluorescence ratio of 1.03 ± 0.023.
GCGGGGAGGT gave a switch fluorescence ratio of 1.01 ± 0.055.
Sequence GCGGGGCCAG has a switch fluorescence ratio of 0.982 ± 0.011.
With GCGGGGGAAT the switch fluorescence ratio was 1.05 ± 0.071.
In the case of GCGGGGGAGG, the switch fluorescence ratio is reported as 0.993 ± 0.029.
GCGGGGGGCA gave a switch fluorescence ratio of 1.03 ± 0.055.
GCGGGGGTGT gave a switch fluorescence ratio of 1.05 ± 0.026.
GCGGGGTCGT was tested, and the switch fluorescence ratio was 0.977 ± 0.032.
GCGGGTAAGC showed a switch fluorescence ratio of 1.05 ± 0.012.
Sequence GCGGGTAGCG has a switch fluorescence ratio of 0.983 ± 0.022.
With GCGGGTGACC the switch fluorescence ratio was 1.02 ± 0.034.
Sequence GCGGGTGGTA has a switch fluorescence ratio of 1.01 ± 0.041.
With GCGGGTTAGT the switch fluorescence ratio was 1.13 ± 0.13.
In the case of GCGGGTTATG, the switch fluorescence ratio is reported as 1.02 ± 0.029.
Work on GCGGGTTTTC yielded a switch fluorescence ratio of 1.03 ± 0.017.
Work on GCGGTAACGT yielded a switch fluorescence ratio of 0.9765 ± 0.0069.
GCGGTACGCT was tested, and the switch fluorescence ratio was 1.08 ± 0.091.
